Results on 19 molecules are retold here after patent US20220144927A1 (SUMITOMO DAINIPPON PHARMA, published 2022).

The target in experiment [1] is T1, mucin subtype 5AC (human, UniProt P98088 28-5654, limits assumed).
T1 construct: Not a purified recombinant protein; also called MUC5AC; crude extract antigen solution
Description: ELISA, plate coated with crude extract antigen solution of SW1990 xenograft tumor, HRP anti-human IgG; reference antibody. On the procedure:
(§1) Various antibodies were added to a 96 well plate coated with various antigens, and the plate was left standing for 1 hr at room temperature. The plate was washed, a blocking solution was added, and the mixture was left standing for 30 min at room temperature. The plate was washed, HRP-conjugated anti-human IgG was added, and the mixture was left standing for 1 hr or longer at room temperature. The plate was washed, a color development reagent (Bethyl Laboratories, Inc.) was added, and the degree of color development was measured by a microplate reader (VersaMax, Molecular Devices, LLC.).
(§2) In Table 2 and Table 3, a tumor mass collected from a cancer-bearing model mouse transplanted with human pancreatic cancer cell line SW1990 was homogenized, and the supernatant (crude extract antigen solution) after centrifugation was used as an antigen. In Table 4, a mucin fraction obtained by isopycnic centrifugation using cesium chloride from the crude extract antigen solution was used as the antigen.

Experiment [2] deals with T1, mucin subtype 5AC. In words: ELISA, plate coated with mucin fraction (CsCl isopycnic centrifugation of SW1990 tumor crude extract), HRP anti-human IgG. On the procedure: as §1, §2
(In general: In an ELISA, binding on a coated surface is turned into a signal by an enzyme label.)

Experiment [3] addresses T1, mucin subtype 5AC. Description: ELISA, plate coated with crude extract antigen solution of SW1990 xenograft tumor, HRP anti-human IgG. As for the experimental part: as §1, §2

Where a chain is given by its changes, count along the chain named.

B1: antibody 1 (antibody, V domains shown)
VH: EVQLLESGGGLVQPGGSLRLSCAASGFTFSNYGMSWVRQAPGKGLEWVSTISNSGRYTYFPDSVKGRFTISRDNSKNTLYLQMNSLRAEDTALYYCTRHLDYANYDAMDYWGQGTLVTVSS
VL: DIVMTQSPSSLSASVGDRVTITCRASKSVTTSDFSYMHWYQQKPGKAPKLLIYLASNLESGVPSRFSGSGSGTDFTLTISSLQPEDFATYYCQHSREFPWTFGGGTKVEIK
notes: Humanized antibody of the invention; also called H01L01
B1: in the experiment with mucin subtype 5AC [1], the “in vitro binding activity ratio to antibody 1” value is 1 fold vs antibody 1.

B2: antibody 18 (antibody, V domains shown)
VH: B1 VH with L5V, Q13K, S75A, T78S, L93V, T97A
VL: DIVMTQTPLSSPVTLGQPASISCRASKSVTTSDFSYMHWLQQRPGQPPRLLIYLASNLESGVPDRFSGSGAGTDFTLKISRVEAEDVGVYYCQHSREFPWTFGQGTKVEIK
notes: also called H06L06
B2: the “in vitro binding activity ratio to antibody 20” value with mucin subtype 5AC [2] is 0.13 fold vs antibody 20.

B3: antibody 4 (antibody, V domains shown)
VH: B1 VH
VL: DIVMTQSPDSLAVSLGERATINCKASKSVTTSDFSYLHWYQQKPGQPPKLLIYLASNLESGVPDRFSGSGSGTDFTLTISSLQAEDVAVYYCQHSREFPWTFGGGTKLEIK
notes: Humanized antibody of the invention; also called H01L04
As for B3, the “in vitro binding activity ratio to antibody 1” value with mucin subtype 5AC [3] was determined as 0.99 fold vs antibody 1. Besides, in the experiment with mucin subtype 5AC [2], the “in vitro binding activity ratio to antibody 20” value was 0.97 fold vs antibody 20.

B4: antibody 19 (antibody, V domains shown)
VH: B1 VH with L93V, T97A, R98K
VL: B2 VL with S11L, P12S, L15P, L40Y, Q41L, R43K, R49Q, A71S
notes: also called H05L07
In the case of B4, in the experiment with mucin subtype 5AC [2], the “in vitro binding activity ratio to antibody 20” value came out at 0.49 fold vs antibody 20.

B5: antibody 3 (antibody, V domains shown)
VH: B1 VH
VL: B1 VL with V3Q, A47S, T76S
notes: Humanized antibody of the invention; also called H01L03
Regarding B5, the “in vitro binding activity ratio to antibody 1” value with mucin subtype 5AC [3] was determined as 0.99 fold vs antibody 1. Moreover, the “in vitro binding activity ratio to antibody 20” value with mucin subtype 5AC [2] was determined as 1.56 fold vs antibody 20.

B6: antibody 14 (antibody, V domains shown)
VH: B1 VH with A24V, K76R, S85T, L93V, L116P
VL: B1 VL with I2V, S10T, K46Q, G104Q, V108L
notes: Humanized antibody of the invention; also called H04L02
Take B6: the “in vitro binding activity ratio to antibody 9” value in the experiment with mucin subtype 5AC [3] turned out to be 1.04 fold vs antibody 9.

B7: antibody 9 (antibody, V domains shown)
VH: B1 VH with E1L, L5V, L11V, G16R, S49A, L93V
VL: B1 VL
notes: Humanized antibody of the invention; also called H03L01
Turning to B7, in the experiment with mucin subtype 5AC [1], the “in vitro binding activity ratio to antibody 9” value stood at 1 fold vs antibody 9.

B8: antibody 15 (antibody, V domains shown)
VH: B1 VH with A24V, K76R, S85T, L93V, L116P
VL: B1 VL with V3Q, A47S, T76S
notes: Humanized antibody of the invention; also called H04L03
B8: in the experiment with mucin subtype 5AC [3], the “in vitro binding activity ratio to antibody 9” value turned out to be 1.36 fold vs antibody 9.

B9: antibody 13 (antibody, V domains shown)
VH: B1 VH with A24V, K76R, S85T, L93V, L116P
VL: B1 VL
notes: Humanized antibody of the invention; also called H04L01
Take B9: the “in vitro binding activity ratio to antibody 9” value with mucin subtype 5AC [3] was 0.9 fold vs antibody 9.

B10: antibody 16 (antibody, V domains shown)
VH: B1 VH with A24V, K76R, S85T, L93V, L116P
VL: B3 VL
notes: Humanized antibody of the invention; also called H04L04
Regarding B10, the “in vitro binding activity ratio to antibody 9” value with mucin subtype 5AC [3] was determined as 0.88 fold vs antibody 9. Also, in the experiment with mucin subtype 5AC [2], the “in vitro binding activity ratio to antibody 20” value was 1.09 fold vs antibody 20.

B11: antibody 2 (antibody, V domains shown)
VH: B1 VH
VL: B1 VL with I2V, S10T, K46Q, G104Q, V108L
notes: Humanized antibody of the invention; also called H01L02
For B11, the “in vitro binding activity ratio to antibody 1” value with mucin subtype 5AC [3] is 1.03 fold vs antibody 1.

B12: antibody 17 (antibody, V domains shown)
VH: B1 VH with L93V, T97A, R98K
VL: B1 VL with V3Q, S12A, A13V, V15L, K46L, L77F, F87I, G104Q, I110V
notes: also called H05L05
Regarding B12, the “in vitro binding activity ratio to antibody 20” value with mucin subtype 5AC [2] stood at 0.75 fold vs antibody 20.

B13: antibody 5 (antibody, V domains shown)
VH: B1 VH with E1L, L5V, L11V, Q13R, V37I, S75A, T78S
VL: B1 VL
notes: Humanized antibody of the invention; also called H02L01
For the molecule B13, in the experiment with mucin subtype 5AC [3], the “in vitro binding activity ratio to antibody 1” value amounted to 0.6 fold vs antibody 1.

B14: antibody 10 (antibody, V domains shown)
VH: B1 VH with E1L, L5V, L11V, G16R, S49A, L93V
VL: B1 VL with I2V, S10T, K46Q, G104Q, V108L
notes: Humanized antibody of the invention; also called H03L02
For B14, the “in vitro binding activity ratio to antibody 9” value in the experiment with mucin subtype 5AC [3] turned out to be 0.96 fold vs antibody 9.

B15: antibody 6 (antibody, V domains shown)
VH: B1 VH with E1L, L5V, L11V, Q13R, V37I, S75A, T78S
VL: B1 VL with I2V, S10T, K46Q, G104Q, V108L
notes: Humanized antibody of the invention; also called H02L02
Regarding B15, the “in vitro binding activity ratio to antibody 1” value with mucin subtype 5AC [3] is 0.71 fold vs antibody 1.

B16: antibody 8 (antibody, V domains shown)
VH: B1 VH with E1L, L5V, L11V, Q13R, V37I, S75A, T78S
VL: B3 VL
notes: Humanized antibody of the invention; also called H02L04
Turning to B16, the “in vitro binding activity ratio to antibody 1” value in the experiment with mucin subtype 5AC [3] worked out at 0.72 fold vs antibody 1. In addition, the “in vitro binding activity ratio to antibody 20” value with mucin subtype 5AC [2] amounted to 0.7 fold vs antibody 20.

B17: antibody 7 (antibody, V domains shown)
VH: B1 VH with E1L, L5V, L11V, Q13R, V37I, S75A, T78S
VL: B1 VL with V3Q, A47S, T76S
notes: Humanized antibody of the invention; also called H02L03
In the case of B17, the “in vitro binding activity ratio to antibody 1” value with mucin subtype 5AC [3] amounted to 0.65 fold vs antibody 1.

B18: antibody 11 (antibody, V domains shown)
VH: B1 VH with E1L, L5V, L11V, G16R, S49A, L93V
VL: B1 VL with V3Q, A47S, T76S
notes: Humanized antibody of the invention; also called H03L03
Take B18: the “in vitro binding activity ratio to antibody 9” value with mucin subtype 5AC [3] is 1.25 fold vs antibody 9.

B19: antibody 12 (antibody, V domains shown)
VH: B1 VH with E1L, L5V, L11V, G16R, S49A, L93V
VL: B3 VL
notes: Humanized antibody of the invention; also called H03L04
Turning to B19, in the experiment with mucin subtype 5AC [3], the “in vitro binding activity ratio to antibody 9” value was found to be 0.91 fold vs antibody 9.
